Assay results published in paper doi:10.1101/340778 (bioRxiv, 2018).

Target: J-base Binding Protein 1 (JBP1) (Leishmania tarentolae (assumed; species …, UniProt Q9U6M1)
Assay: SPR

Sequence of J-base Binding Protein 1 (JBP1) (Leishmania tarentolae (Q9U6M1 whole entry): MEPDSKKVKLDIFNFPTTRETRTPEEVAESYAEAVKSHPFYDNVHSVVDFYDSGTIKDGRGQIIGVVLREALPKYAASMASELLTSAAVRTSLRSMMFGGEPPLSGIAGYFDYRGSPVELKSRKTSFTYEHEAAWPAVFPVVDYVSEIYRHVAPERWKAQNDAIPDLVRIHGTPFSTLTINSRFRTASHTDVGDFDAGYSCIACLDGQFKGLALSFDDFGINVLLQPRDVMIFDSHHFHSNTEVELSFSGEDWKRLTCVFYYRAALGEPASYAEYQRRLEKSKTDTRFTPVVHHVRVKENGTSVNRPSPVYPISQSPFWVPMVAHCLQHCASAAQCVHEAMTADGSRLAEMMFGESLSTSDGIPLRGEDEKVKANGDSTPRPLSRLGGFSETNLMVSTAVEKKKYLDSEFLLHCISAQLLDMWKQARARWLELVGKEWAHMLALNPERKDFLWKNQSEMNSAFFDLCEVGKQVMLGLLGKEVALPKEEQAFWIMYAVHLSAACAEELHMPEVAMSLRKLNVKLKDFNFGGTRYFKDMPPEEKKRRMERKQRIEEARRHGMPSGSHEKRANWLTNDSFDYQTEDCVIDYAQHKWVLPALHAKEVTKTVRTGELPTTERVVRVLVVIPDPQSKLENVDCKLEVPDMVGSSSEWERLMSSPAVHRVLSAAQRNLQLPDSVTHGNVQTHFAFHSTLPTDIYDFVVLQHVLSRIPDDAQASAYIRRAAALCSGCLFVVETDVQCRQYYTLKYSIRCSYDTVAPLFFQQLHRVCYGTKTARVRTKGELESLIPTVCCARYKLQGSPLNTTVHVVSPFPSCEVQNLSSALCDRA

B1: nanobody-6 (Nb6) (VHH)
VHH: QVQLVESGGGLVQAGGSLRLSCAASGSFFSINDMGWYRQAPGKQRELVAVISSGGSTNYADSVEGRSTISSDNAKNTVYLQLSSLKPEDTAVYYCNANVRLREYRTTSYHYWGQGTQVTVSS
B1 gave a Kd of 30 nM.
